Paper PMC6920965, “Plant Polyphenols Inhibit Functional Amyloid and Biofilm Formation in Pseudomonas Strains by Directing Monomers to Off-Pathway Oligomers” (Biomolecules, 2019)
Each block holds one compound with its values, some of them ahead of it.

Key:
FapC (FapC-UK4) [1] = molecular target: T1, FapC (FapC-UK4) (Pseudomonas fluorescens, UniProt P0DXF5); assay: peptide array and SDS-PAGE blot with NBT staining; supported by ThT fibrillation, SEC and SAXS; type: binding
T1 construct: His-tagged FapC wt, 226-residue mature protein without the 24-residue signal peptide
T1 sequence (P0DXF5 25-250): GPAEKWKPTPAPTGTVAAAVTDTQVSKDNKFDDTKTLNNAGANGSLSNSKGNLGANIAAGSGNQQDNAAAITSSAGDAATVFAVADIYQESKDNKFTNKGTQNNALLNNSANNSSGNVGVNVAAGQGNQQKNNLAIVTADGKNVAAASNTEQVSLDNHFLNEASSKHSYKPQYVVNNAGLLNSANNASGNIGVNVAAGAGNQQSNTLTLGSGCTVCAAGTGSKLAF

FapC-PAO1 = FapC-PAO1 (Pseudomonas aeruginosa, UniProt Q9I2F0); assay: ThT fibrillation assay ([…] FapC-PAO1, […] polyphenol) and SDS-PAGE; type: biochemical
FapC-PAO1, sequence (Q9I2F0 25-340): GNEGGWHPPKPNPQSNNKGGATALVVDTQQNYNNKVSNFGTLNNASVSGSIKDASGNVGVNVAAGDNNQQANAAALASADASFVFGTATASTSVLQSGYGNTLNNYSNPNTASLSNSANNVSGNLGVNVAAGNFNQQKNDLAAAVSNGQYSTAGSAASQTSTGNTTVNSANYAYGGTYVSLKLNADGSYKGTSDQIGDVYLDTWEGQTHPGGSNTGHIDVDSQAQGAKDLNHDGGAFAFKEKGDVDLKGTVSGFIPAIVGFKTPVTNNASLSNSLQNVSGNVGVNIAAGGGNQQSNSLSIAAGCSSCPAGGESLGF

FapC (FapC-UK4) [2] = molecular target: T2, FapC (FapC-UK4) (Pseudomonas fluorescens, UniProt P0DXF5); assay: ThT fibrillation assay of purified FapC; supported by CD, ATR-FTIR, SEC and SAXS of oligomers; type: biochemical
T2 construct: His-tagged FapC wt, mature protein (226 residues)

[3] = molecular target: FapC from Pseudomonas sp. UK4, wild type (Pseudomonas sp. UK4); assay: SAXS; oligomers formed in the presence of baicalein and purified by SEC; Nagg by indirect Fourier transformation; core-shell model
[4] = molecular target: FapC from Pseudomonas sp. UK4, wild type (Pseudomonas sp. UK4); assay: SAXS; oligomers formed in the presence of PGG and purified by SEC; Nagg by indirect Fourier transformation; core-shell model
[5] = molecular target: FapC from Pseudomonas sp. UK4, wild type (Pseudomonas sp. UK4); assay: SAXS; oligomers formed in the presence of EGCG and purified by SEC; Nagg by indirect Fourier transformation; core-shell model
[6] = molecular target: FapC from Pseudomonas sp. UK4, wild type (Pseudomonas sp. UK4); assay: SAXS; freshly desalted sample without TCEP; aggregation number (Nagg) by indirect Fourier transformation
[7] = molecular target: FapC-UK4 mutant lacking all three imperfect repeats (∆R1R2R3) (Pseudomonas sp. UK4); assay: SAXS; oligomers formed in the presence of PGG and purified by SEC; Nagg by indirect Fourier transformation; core-shell model
[8] = molecular target: FapC-UK4 mutant lacking all three imperfect repeats (∆R1R2R3) (Pseudomonas sp. UK4); assay: SAXS; freshly desalted sample without TCEP; aggregation number (Nagg) by indirect Fourier transformation

Compound: O=C(O[C@@H]1Cc2c(O)cc(O)cc2O[C@@H]1c1cc(O)c(O)c(O)c1)c1cc(O)c(O)c(O)c1 [EGCG, epigallocatechin gallate]
- peptide array and SDS-PAGE blot with NBT staining; supported by ThT fibrillation (FapC (FapC-UK4) [1]): The intensity of EGCG binding varied significantly across the probed peptides (Figure 6C), showing particular affinity for regions
- ThT fibrillation assay (30 μM FapC-PAO1, 100 μM polyphenol) and SDS-PAGE (FapC-PAO1): PGG, EGCG, and baicalein keep FapC monomeric or lead to off-pathway oligomers (Figure 4B).

Compound: O=C(OC[C@H]1O[C@@H](OC(=O)c2cc(O)c(O)c(O)c2)[C@H](OC(=O)c2cc(O)c(O)c(O)c2)[C@@H](OC(=O)c2cc(O)c(O)c(O)c2)[C@@H]1OC(=O)c1cc(O)c(O)c(O)c1)c1cc(O)c(O)c(O)c1 [PGG, penta-O-galloyl-β-D-glucose]
- IC50 (FapC (FapC-UK4) [2]): ~26 µM
- ThT fibrillation assay (30 μM FapC-PAO1, 100 μM polyphenol) and SDS-PAGE (FapC-PAO1): PGG, EGCG, and baicalein keep FapC monomeric or lead to off-pathway oligomers (Figure 4B).

Compound: O=c1cc(-c2ccccc2)oc2cc(O)c(O)c(O)c12 [baicalein]
- ThT fibrillation assay (30 μM FapC-PAO1, 100 μM polyphenol) and SDS-PAGE (FapC-PAO1): PGG, EGCG, and baicalein keep FapC monomeric or lead to off-pathway oligomers (Figure 4B).

- stoichiometry N [3]: 6.7
- stoichiometry N [4]: 7.6
- stoichiometry N [5]: 6.7
- stoichiometry N [6]: 4.4
Compound: FapC from Pseudomonas sp. UK4, wild type (natural protein)

- stoichiometry N [7]: 4.7
- stoichiometry N [8]: 2.7
Compound: FapC-UK4 mutant lacking all three imperfect repeats (∆R1R2R3) (domain or fragment)
